Earlier results as cited in paper PMC4421034.

Biological target: Calmodulin (UniProt P0DP23)

MLCK (from UniProt Q15746)
Kd: 1 nM
